The values that follow come from doi:10.1101/2025.05.20.655083.

For the assay, the target named is BSB PyV-LTA;mNLSn peptide (Black Sea Bass polyomavirus). Nature of the assay: fluorescence polarisation. In general terms: In fluorescence polarisation assays a small probe gives low polarisation when free and higher when bound to something large.

Substance “mouse importin α2 ΔIBB (from UniProt P52293 70-529) (domain or fragment)” gave a fold decrease of binding affinity against BSB PyV-LTA;NLS of 10 times.
